These results are taken from article PMC5515880 (Scientific Reports, 2017).

In assay [1] the target is T1, GST-N protein (MHV N protein as a GST fusion construct) (mouse hepatitis virus (MHV-A59), UniProt P03416 1-454).
T1 sequence: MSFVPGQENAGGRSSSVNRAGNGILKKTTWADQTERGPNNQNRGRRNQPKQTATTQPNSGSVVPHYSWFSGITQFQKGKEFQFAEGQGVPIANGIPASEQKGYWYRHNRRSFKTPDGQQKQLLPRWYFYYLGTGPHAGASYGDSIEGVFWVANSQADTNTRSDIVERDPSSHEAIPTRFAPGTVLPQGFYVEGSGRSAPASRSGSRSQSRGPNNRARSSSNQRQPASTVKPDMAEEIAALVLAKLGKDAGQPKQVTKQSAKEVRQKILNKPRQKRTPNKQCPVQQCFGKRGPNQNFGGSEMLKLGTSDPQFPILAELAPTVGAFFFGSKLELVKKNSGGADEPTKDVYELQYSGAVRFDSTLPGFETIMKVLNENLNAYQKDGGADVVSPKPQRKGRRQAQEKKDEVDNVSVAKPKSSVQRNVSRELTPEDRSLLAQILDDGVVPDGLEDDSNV
The experiment in a line: pull-down. The settings on record: one partner purified.

The target of assay [2] is T2, 6xHis-tagged N2b-N3 truncation of MHV N protein (mouse hepatitis virus (MHV-A59), UniProt P03416 258-454).
T2 sequence: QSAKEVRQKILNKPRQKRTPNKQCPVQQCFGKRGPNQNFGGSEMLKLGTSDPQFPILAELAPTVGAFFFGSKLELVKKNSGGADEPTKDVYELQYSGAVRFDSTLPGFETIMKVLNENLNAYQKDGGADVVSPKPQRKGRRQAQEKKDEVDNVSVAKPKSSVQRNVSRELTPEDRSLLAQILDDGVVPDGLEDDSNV
The experiment in a line: pull-down. The conditions noted are these: one partner purified.

B1: 6xHis-tagged full length MHV N protein (natural protein)
chain: MSFVPGQENAGGRSSSVNRAGNGILKKTTWADQTERGPNNQNRGRRNQPKQTATTQPNSGSVVPHYSWFSGITQFQKGKEFQFAEGQGVPIANGIPASEQKGYWYRHNRRSFKTPDGQQKQLLPRWYFYYLGTGPHAGASYGDSIEGVFWVANSQADTNTRSDIVERDPSSHEAIPTRFAPGTVLPQGFYVEGSGRSAPASRSGSRSQSRGPNNRARSSSNQRQPASTVKPDMAEEIAALVLAKLGKDAGQPKQVTKQSAKEVRQKILNKPRQKRTPNKQCPVQQCFGKRGPNQNFGGSEMLKLGTSDPQFPILAELAPTVGAFFFGSKLELVKKNSGGADEPTKDVYELQYSGAVRFDSTLPGFETIMKVLNENLNAYQKDGGADVVSPKPQRKGRRQAQEKKDEVDNVSVAKPKSSVQRNVSRELTPEDRSLLAQILDDGVVPDGLEDDSNV
For B1, in assay [1], the binding result is “binds”.

B2: GST-N1 (MHV N protein truncation) (domain or fragment)
chain: MSFVPGQENAGGRSSSVNRAGNGILKKTTWADQTERGPNNQNRGRRNQPKQTATTQPNSGSVVPHYSWFSGITQFQKGKEFQFAEGQGVPIANGIPASEQKGYWYRHNRRSFKTPDGQQKQLLPRWYFYYLGTGPHAGASYGDSIEGVFWVANSQADTNTRSDIVERDPSSHEAIPTRFAPGTVLPQGFYVEGS
For B2, the binding result in assay [2] is on record as “binds”.
